Where two headings read alike, the source gives them in different places.
Key:
[1] = cited from earlier work
[2] = SEC-MALS assay (protein stability analysis); type: physicochemical; settings: for SEC-MALS HMW: high molecular weight fraction; for SEC-MALS Main Peak: main peak fraction; for SEC-MALS Tailing Peak: tailing peak fraction
Procedure: A SEC-MALS assay was performed to determine the primary state (main peak) and its molecular weight. The GLP-2 peptibody A has the amino acid sequence set forth in SEQ ID NO: 1. The GLP-2 peptibody B has the amino acid sequence set forth in SEQ ID NO: 4. The GLP-2 peptibody C has the amino acid sequence set forth in SEQ ID NO: 7. The GLP-2 peptibody D has the amino acid sequence set forth in SEQ ID NO: 10.

Molecule | half-life ([1]; SBS patients) | half-life ([1]; healthy patients) | SEC-MALS HMW [2] | SEC-MALS Main Peak [2] | SEC-MALS Tailing Peak [2]
CC[C@H](C)[C@H](NC(=O)[C@H](Cc1ccccc1)NC(=O)[C@H](CC(=O)O)NC(=O)[C@H](CCCNC(=N)N)NC(=O)[C@H](C)NC(=O)[C@H](C)NC(=O)[C@H](CC(C)C)NC(=O)[C@H](CC(N)=O)NC(=O)[C@H](CC(=O)O)NC(=O)[C@H](CC(C)C)NC(=O)[C@@H](NC(=O)[C@@H](NC(=O)[C@H](CC(N)=O)NC(=O)[C@H](CCSC)NC(=O)[C@H](CCC(=O)O)NC(=O)[C@H](CC(=O)O)NC(=O)[C@H](CO)NC(=O)[C@H](Cc1ccccc1)NC(=O)[C@H](CO)NC(=O)CNC(=O)[C@H](CC(=O)O)NC(=O)CNC(=O)[C@@H](N)Cc1c[nH]cn1)[C@@H](C)O)[C@@H](C)CC)C(=O)N[C@@H](CC(N)=O)C(=O)N[C@@H](Cc1c[nH]c2ccccc12)C(=O)N[C@@H](CC(C)C)C(=O)N[C@H](C(=O)N[C@@H](CCC(N)=O)C(=O)N[C@H](C(=O)N[C@@H](CCCCN)C(=O)N[C@H](C(=O)N[C@H](C(=O)N[C@@H](CC(=O)O)C(=O)O)[C@@H](C)O)[C@@H](C)CC)[C@@H](C)O)[C@@H](C)CC [Teduglutide] | ~1.3 h | approximately 2 hours | – | – | –
GLP-2 peptibody B: GLP-2[A2G]-linker APAPAPAPAPAPAPAPAPAP-IgG1(LALA) Fc fusion having the amino acid sequence of SEQ ID NO: 4 | – | – | 1.2% HMW | 80.7% Main Peak | 18.1% Tailing Peak
GLP-2 peptibody C: GLP-2[A2G]-linker AEAAAKEAAAKEAAAKALEAEAAAKEAAAKEAAAKA-IgG1(LALA) Fc fusion having the amino acid sequence of SEQ ID NO: 7 | – | – | – | 82.6% Main Peak | 17.4% Tailing Peak
GLP-2 peptibody D: GLP-2[A2G] with C-terminal arginine-linker GGGGSGGGGSGGGGS-IgG1(LALA) Fc fusion having the amino acid sequence of SEQ ID NO: 10 | – | – | 1.4% HMW | 86.8% Main Peak | 11.8% Tailing Peak
